Key:
Experiment in all cases: two-hybrid; split-ubiquitin yeast two-hybrid (DUALhunter), S. cerevisiae NMY51; bait as Cub fusion, prey as NubG fusion; growth on SD-LWHA with 45 and 55 mM 3-AT, 28°C, and β-galactosidase activity (X-gal, ONPG)
[1] = molecular target: Opuntia streptacantha SK3 dehydrin OpsDHN1, full-length version, split-ubiquitin fusion (Opuntia streptacantha)
[2] = molecular target: OpsDHN1-S(ΔH)K3, version without the histidine-rich motif (residues 1-111/138-248), split-ubiquitin fusion (Opuntia streptacantha)
[3] = molecular target: OpsDHN1-SK2, C-terminal truncated version (residues 1-199), split-ubiquitin fusion (Opuntia streptacantha)
[4] = molecular target: SV40 LargeT antigen (Cub) (SV40)

OpsDHN1-SK2, C-terminal truncated version (residues 1-199), split-ubiquitin fusion (domain or fragment)
β-galactosidase activity (two-hybrid reporter) (nmol ONP/min/mg protein) [1]: 146

Opuntia streptacantha SK3 dehydrin OpsDHN1, full-length version, split-ubiquitin fusion (natural protein)
β-galactosidase activity (two-hybrid reporter) (nmol ONP/min/mg protein) [2]: 70.5 | β-galactosidase activity (two-hybrid reporter) (nmol ONP/min/mg protein) [3]: 142 | β-galactosidase activity (two-hybrid reporter) (nmol ONP/min/mg protein) [1]: 462

tumor suppressor Δp53 (NubG) (domain or fragment)
β-galactosidase activity (two-hybrid reporter) (nmol ONP/min/mg protein) [4]: 656

Source: PMC4193212
